The target of test [1] is T1, human SLC34A2 (human, UniProt O95436 1-690).
T1 construct: whole, on cells; also called human solute carrier 34 A2; NaPi2b
T1 sequence (looked up): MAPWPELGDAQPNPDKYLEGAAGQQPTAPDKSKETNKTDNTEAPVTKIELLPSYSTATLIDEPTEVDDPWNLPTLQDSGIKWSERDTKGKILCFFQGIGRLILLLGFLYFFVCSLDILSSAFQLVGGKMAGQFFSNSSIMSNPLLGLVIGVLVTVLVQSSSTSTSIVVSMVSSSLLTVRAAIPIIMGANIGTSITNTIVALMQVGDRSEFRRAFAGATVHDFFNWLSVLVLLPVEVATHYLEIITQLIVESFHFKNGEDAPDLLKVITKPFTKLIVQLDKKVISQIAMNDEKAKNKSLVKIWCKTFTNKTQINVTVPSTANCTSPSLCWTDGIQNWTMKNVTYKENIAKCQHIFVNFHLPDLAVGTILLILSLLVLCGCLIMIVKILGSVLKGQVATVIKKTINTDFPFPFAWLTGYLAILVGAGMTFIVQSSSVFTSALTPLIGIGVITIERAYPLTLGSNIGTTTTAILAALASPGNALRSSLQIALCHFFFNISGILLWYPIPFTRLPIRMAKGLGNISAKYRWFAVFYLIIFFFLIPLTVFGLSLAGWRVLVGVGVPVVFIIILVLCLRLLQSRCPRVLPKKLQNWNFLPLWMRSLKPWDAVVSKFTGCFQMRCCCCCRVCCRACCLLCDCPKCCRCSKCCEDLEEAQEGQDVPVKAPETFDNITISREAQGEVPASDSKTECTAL
In words: FACS, OVCAR3 cells.

The target of test [2] is T1, human SLC34A2. In words: cell-based or functional assay.
The target of test [3] is T1, human SLC34A2. In words: FACS, HEK293/human SLC34A2 cells. The method, then: (§1) In another testing, cell based binding of hu Abs on human SLC34A2 expressing cells were assessed using flow cytometry. Briefly, the HEK293/H_SLC34A2, OVCAR3 and RMG-1 cells were incubated with hu Abs. After incubation at 4° C. for 60 minutes, the cells were washed with FACS buffer twice, then stained with fluorescent conjugated secondary antibody at 4° C. for 30 minutes. After that the cells were washed twice and analyzed by flow cytometry.

The target in test [4] is T1, human SLC34A2. The test is described as follows: FACS, OVCAR3 cells. Here is the method: The binding of these humanized antibodies to OVCAR3 cells was evaluated as described above, and the results are shown in FIG. 12A-D and Tables 16A-D.
This is another data set of the same source.

In the next test the target is T2, Rhesus SLC34A2 (Rhesus, UniProt F7HDA3 1-690).
T2 construct: whole, on cells
T2 sequence: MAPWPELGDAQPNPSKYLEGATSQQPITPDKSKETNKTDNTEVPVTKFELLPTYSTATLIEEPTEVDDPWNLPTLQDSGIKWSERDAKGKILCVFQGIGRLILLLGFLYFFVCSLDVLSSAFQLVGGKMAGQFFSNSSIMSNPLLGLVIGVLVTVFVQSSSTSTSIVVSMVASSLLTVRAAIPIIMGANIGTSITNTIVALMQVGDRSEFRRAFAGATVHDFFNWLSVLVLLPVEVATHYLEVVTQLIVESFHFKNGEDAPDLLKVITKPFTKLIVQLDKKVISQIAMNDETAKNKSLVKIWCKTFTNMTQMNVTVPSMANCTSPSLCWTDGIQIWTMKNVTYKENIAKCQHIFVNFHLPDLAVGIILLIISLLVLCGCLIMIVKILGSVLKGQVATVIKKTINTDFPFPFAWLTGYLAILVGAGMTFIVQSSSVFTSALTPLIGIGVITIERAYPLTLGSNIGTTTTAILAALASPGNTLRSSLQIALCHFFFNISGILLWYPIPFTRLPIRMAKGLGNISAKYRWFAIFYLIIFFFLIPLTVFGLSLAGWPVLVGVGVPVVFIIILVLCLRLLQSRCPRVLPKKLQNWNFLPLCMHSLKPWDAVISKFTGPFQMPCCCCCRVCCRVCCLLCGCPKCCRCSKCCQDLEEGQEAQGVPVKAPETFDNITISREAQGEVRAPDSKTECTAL
In words: FACS, HEK293/Rhesus SLC34A2 cells.

Test [5] addresses T1, human SLC34A2. The test is described as follows: FACS, RMG-1 cells. The method, then:
as §1

Test [6] deals with T1, human SLC34A2. The test is described as follows: FACS, OVCAR3 cells. The method, then: as §1
The source holds these as a separate data set.

Read-outs that look alike come from different tables or passages of the source.

B1: 91C9F1.p1.z1 hIgG1 (antibody, V domains shown)
VH: QVQLVQSGAEVKKPGSSVKVSCKASGFFFTEYIIHWVRQAPGQGLEWMGGIIPNNDVTNYKQNFRGRVTITADESTSTAYMELSSLRSEDTAVYYCARWRNAYYSAMDSWGQGTTVTVSS
VL: DIQMTQSPSSLSASVGDRVTITCTASQDVGTAVAWYQQKPGKVPKLLIYWASTRHTGVPSRFSGSGSGTDFTLTISSLQPEDVATYYCQQYRTSPLTFGGGTKVEIK
notes: humanized hIgG1
In the case of B1, in the test with human SLC34A2 [1], the EC50 was found to be 3.78 nM and the “Top (MFI)” value was determined as 34200 MFI.

B2: 91C9F1.p1.z14 hIgG1 (antibody, V domains shown)
VH: QVQLVQSGAEVVKPGSSVKISCKTSGFFFTEYIIHWVKQSPGQGLEWIGGIIPNNDVTNYKQNFRGRATLTADKSTNTAYMELRSSLRSEDTAVYYCARWRNAYYSAMDSWGQGTTVTVSS
VL: DIQMTQSPSSLSTSVGDRVTITCTASQDVGTAVAWYQQKPGKSPKLLIYWASTRHTGVPERFSGSGSGTDFTLTISSLQPEDVATYFCQQYRTSPLTFGGGTKVEIK
notes: humanized hIgG1
B2: in the test with human SLC34A2 [1], it took 3.87 nM to reach a half-maximal effect (EC50) and the “Top (MFI)” value was determined as 36200 MFI.

B3: 91C9F1.p1.z3 hIgG1 (antibody, V domains shown)
VH: QVQLVQSGAEVKKPGSSVKVSCKASGFFFTEYIIHWVRQAPGQGLEWMGGIIPNNDVTNYKQNFRGRVTITADESTSTAYMELSSLRSEDTAVYYCARWRNAYYSAMDSWGQGTTVTVSS
VL: DIQVTQSPSSLSTSVGDRVTITCTASQDVGTAVAWYQQKPGKSPKLLIYWASTRHTGVPERFTGSGSGTDFTLTISSVQPEDVATYFCQQYRTSPLTFGVGTKVEIK
notes: humanized hIgG1
B3: in the test with human SLC34A2 [1], the EC50 amounted to 4.04 nM and the “Top (MFI)” value came out at 35500 MFI.

B4: 91C9F1.p1.z8 hIgG1 (antibody, V domains shown)
VH: QVQLVQSGAEVKKPGSSVKVSCKTSGFFFTEYIIHWVRQAPGQGLEWIGGIIPNNDVTNYKQNFRGRVTLTADKSTSTAYMELSSLRSEDTAVYYCARWRNAYYSAMDSWGQGTTVTVSS
VL: DIVVTQSPSSLSTSVGDRVTITCTASQDVGTAVAWYQQKPGKSPKLLIYWASTRHTGVPERFTGSGSGTDFTLTISSVQPEDVATYFCQQYRTSPLTFGVGTKLELK
notes: humanized hIgG1
With B4, in the test with human SLC34A2 [1], the concentration for a half-maximal effect (EC50) came to 2.13 nM and the “Top (MFI)” value is 35700 MFI.

B5: 91C9F1.p1.z12 hIgG1 (antibody, V domains shown)
VH: QVQLVQSGAEVVKPGSSVKVSCKTSGFFFTEYIIHWVRQSPGQGLEWIGGIIPNNDVTNYKQNFRGRATLTADKSTSTAYMELSSLRSEDTAVYYCARWRNAYYSAMDSWGQGTTVTVSS
VL: DIVVTQSPSSLSTSVGDRVTITCTASQDVGTAVAWYQQKPGKSPKLLIYWASTRHTGVPERFTGSGSGTDFTLTISSVQPEDVATYFCQQYRTSPLTFGVGTKLELK
notes: humanized hIgG1
On to B5, for which, in the test with human SLC34A2 [1], it took 1.77 nM to reach a half-maximal effect (EC50) and the “Top (MFI)” value amounted to 34500 MFI.

B6: 91C9F1.p1.z2 hIgG1 (antibody, V domains shown)
VH: QVQLVQSGAEVKKPGSSVKVSCKASGFFFTEYIIHWVRQAPGQGLEWMGGIIPNNDVTNYKQNFRGRVTITADESTSTAYMELSSLRSEDTAVYYCARWRNAYYSAMDSWGQGTTVTVSS
VL: DIQMTQSPSSLSTSVGDRVTITCTASQDVGTAVAWYQQKPGKSPKLLIYWASTRHTGVPERFSGSGSGTDFTLTISSLQPEDVATYFCQQYRTSPLTFGGGTKVEIK
notes: humanized hIgG1
As to B6, in the test with human SLC34A2 [1], the EC50 came to 3.32 nM and the “Top (MFI)” value was determined as 34500 MFI.

B7: 91C9F1.p1.z5 hIgG1 (antibody, V domains shown)
VH: QVQLVQSGAEVKKPGSSVKVSCKTSGFFFTEYIIHWVRQAPGQGLEWIGGIIPNNDVTNYKQNFRGRVTLTADKSTSTAYMELSSLRSEDTAVYYCARWRNAYYSAMDSWGQGTTVTVSS
VL: DIQMTQSPSSLSASVGDRVTITCTASQDVGTAVAWYQQKPGKVPKLLIYWASTRHTGVPSRFSGSGSGTDFTLTISSLQPEDVATYYCQQYRTSPLTFGGGTKVEIK
notes: humanized hIgG1
For the molecule B7, in the test with human SLC34A2 [1], the 50% effective concentration (EC50) came out at 2.95 nM and the “Top (MFI)” value worked out at 36900 MFI.

B8: 91C9F1.p1.z9 hIgG1 (antibody, V domains shown)
VH: QVQLVQSGAEVVKPGSSVKVSCKTSGFFFTEYIIHWVRQSPGQGLEWIGGIIPNNDVTNYKQNFRGRATLTADKSTSTAYMELSSLRSEDTAVYYCARWRNAYYSAMDSWGQGTTVTVSS
VL: DIQMTQSPSSLSASVGDRVTITCTASQDVGTAVAWYQQKPGKVPKLLIYWASTRHTGVPSRFSGSGSGTDFTLTISSLQPEDVATYYCQQYRTSPLTFGGGTKVEIK
notes: humanized hIgG1
For B8, in the test with human SLC34A2 [1], the EC50 is 2.72 nM and the “Top (MFI)” value is 37000 MFI.

B9: 91C9F1.p1.z11 hIgG1 (antibody, V domains shown)
VH: QVQLVQSGAEVVKPGSSVKVSCKTSGFFFTEYIIHWVRQSPGQGLEWIGGIIPNNDVTNYKQNFRGRATLTADKSTSTAYMELSSLRSEDTAVYYCARWRNAYYSAMDSWGQGTTVTVSS
VL: DIQVTQSPSSLSTSVGDRVTITCTASQDVGTAVAWYQQKPGKSPKLLIYWASTRHTGVPERFTGSGSGTDFTLTISSVQPEDVATYFCQQYRTSPLTFGVGTKVEIK
notes: humanized hIgG1
As for B9, in the test with human SLC34A2 [1], the concentration for a half-maximal effect (EC50) was determined as 1.41 nM and the “Top (MFI)” value amounted to 31000 MFI.

B10: 30H9B8F9.p1.z13 hIgG1 (antibody, V domains shown)
VH: QVQLVQSGAEVVKPGASVKMSCKTSGYTFTTNNMHWVKQAPGQGLEWIGAIYPGSGATAYNQKFKGRATLTADKSTSTAYMELSSLRSEATAVYYCARGMYGHGAMDYWGQGTSVTVSS
VL: DIQLTQSPSFLSASVGDRVTITCKASQDVGTAVAWYQQKPGKAPKLLIYWATTRHSGVPSRFSGSGSGTEFTLTISSLQPEDFATYYCQQYSSNPLTFGQGTKLEIK
notes: humanized hIgG1
For B10, the “ADCC reporter EC50” value in the test with human SLC34A2 [2] is 0.96 nM. In addition, the “ADCC reporter Top (MFI)” value with human SLC34A2 [2] was 143000 MFI. Further, the EC50 with human SLC34A2 [3] was 1.05 nM; in the test with human SLC34A2 [4] it was 1.03 nM; in the test with Rhesus SLC34A2 it was 0.8 nM; with human SLC34A2 [5], 0.73 nM; with human SLC34A2 [6], 0.62 nM. The Top with human SLC34A2 [3] turned out to be 33000 MFI; in the test with human SLC34A2 [5], 10900 MFI. Further, the “Top (MFI)” value in the test with human SLC34A2 [4] amounted to 28400 MFI; in the test with Rhesus SLC34A2, 15600 MFI.

B11: 30H9B8F9.p1.z6 hIgG1 (antibody, V domains shown)
VH: QVQLVQSGAEVKKPGASVKVSCKTSGYTFTTNNMHWVRQAPGQGLEWIGAIYPGSGATAYNQKFKGRVTMTADTSTSTVYMELSSLRSEDTAVYYCARGMYGHGAMDYWGQGTLVTVSS
VL: DIQLTQSPSFLSASVGDRVTITCKASQDVGTAVAWYQQKPGKSPKLLIYWATTRHSGVPDRFSGSGSGTEFTFTISSLQPEDFATYFCQQYSSNPLTFGQGTKLEIK
notes: humanized hIgG1
In the case of B11, the “ADCC reporter EC50” value with human SLC34A2 [2] was found to be 1.25 nM. The “ADCC reporter Top (MFI)” value with human SLC34A2 [2] turned out to be 135000 MFI. Also, the EC50 with human SLC34A2 [3] amounted to 1.94 nM; with human SLC34A2 [4], 1.62 nM; with Rhesus SLC34A2, 1.1 nM; in the test with human SLC34A2 [5], 1.78 nM; in the test with human SLC34A2 [6], 1.1 nM. The Top with human SLC34A2 [3] was found to be 33600 MFI; with human SLC34A2 [5], 10400 MFI. The “Top (MFI)” value with human SLC34A2 [4] turned out to be 28400 MFI; with Rhesus SLC34A2 it was 15100 MFI.

Source of the values: patent US20240301052A1 (LANOVA MEDICINES DEVELOPMENT, published 2024).
